According to US20240059759A1 (BIGHAT BIOSCIENCES, published 2024):

Tests used:
[1] = target: T1, SARS-CoV-2 RBD (SinoBiological, Cat. No. 40592-V02H) (SARS-CoV-2, UniProt P0DTC2 319-541); assay: ELISA on SARS-CoV-2 RBD
T1 construct: domain: RBD

[2] = target: T1, SARS-CoV-2 RBD (SinoBiological, Cat. …); assay: ELISA, relative EC50
[3] = target: T1, SARS-CoV-2 RBD (SinoBiological, Cat. …); assay: ELISA on RBD
[4] = target: T1, SARS-CoV-2 RBD (SinoBiological, Cat. …)
[5] = target: T1, SARS-CoV-2 RBD (SinoBiological, Cat. …); assay: ELISA on RBD, compared with wildtype VHH-72

B1: VHH-72(S57G) (VHH)
VHH: QVQLQESGGGLVQAGGSLRLSCAASGRTFSEYAMGWFRQAPGKEREFVATISWSGGGTYYTDSVKGRFTISRDNAKNTVYLQMNSLKPDDTAVYYCAAAGLGTVVSEWDYDYDYWGQGTQVTVSS
[1]
  Rel. EC50 - ELISA: 0.09 relative to WT

B2: VHH-72(S57T) (VHH)
VHH: QVQLQESGGGLVQAGGSLRLSCAASGRTFSEYAMGWFRQAPGKEREFVATISWSGGTTYYTDSVKGRFTISRDNAKNTVYLQMNSLKPDDTAVYYCAAAGLGTVVSEWDYDYDYWGQGTQVTVSS
[2]
  binding result: no binding

B3: VHH-72 (S57A, Y60H) (VHH)
VHH: QVQLQESGGGLVQAGGSLRLSCAASGRTFSEYAMGWFRQAPGKEREFVATISWSGGATYHTDSVKGRFTISRDNAKNTVYLQMNSLKPDDTAVYYCAAAGLGTVVSEWDYDYDYWGQGTQVTVSS
[3]
  EC50: 0.029 µg/mL
[4]
  fold further-increased apparent RBD affinity: ~3.5 fold

B4: VHH-72(S57S) (VHH)
VHH: QVQLQESGGGLVQAGGSLRLSCAASGRTFSEYAMGWFRQAPGKEREFVATISWSGGSTYYTDSVKGRFTISRDNAKNTVYLQMNSLKPDDTAVYYCAAAGLGTVVSEWDYDYDYWGQGTQVTVSS
[1]
  Rel. EC50 - ELISA: 1 relative to WT

B5: VHH-72 variant expressing both S57A and D61A (VHH)
VHH: QVQLQESGGGLVQAGGSLRLSCAASGRTFSEYAMGWFRQAPGKEREFVATISWSGGATYYTASVKGRFTISRDNAKNTVYLQMNSLKPDDTAVYYCAAAGLGTVVSEWDYDYDYWGQGTQVTVSS
[5]
  fold improved binding compared to the wildtype VHH-72: > 160 fold
[3]
  EC50: 0.012 µg/mL

B6: VHH-72 (S57Y) (VHH)
VHH: QVQLQESGGGLVQAGGSLRLSCAASGRTFSEYAMGWFRQAPGKEREFVATISWSGGYTYYTDSVKGRFTISRDNAKNTVYLQMNSLKPDDTAVYYCAAAGLGTVVSEWDYDYDYWGQGTQVTVSS
[5]
  fold increased apparent affinity: ~4 fold
[1]
  Rel. EC50 - ELISA: 0.28 relative to WT

B7: VHH-72 (S57A) (VHH)
VHH: QVQLQESGGGLVQAGGSLRLSCAASGRTFSEYAMGWFRQAPGKEREFVATISWSGGATYYTDSVKGRFTISRDNAKNTVYLQMNSLKPDDTAVYYCAAAGLGTVVSEWDYDYDYWGQGTQVTVSS
[5]
  fold increase in RBD affinity: 22 fold
[3]
  EC50: 0.09 µg/mL
[1]
  Rel. EC50 - ELISA: 0.05 relative to WT

B8: VHH-72(D61A) (VHH)
VHH: QVQLQESGGGLVQAGGSLRLSCAASGRTFSEYAMGWFRQAPGKEREFVATISWSGGSTYYTASVKGRFTISRDNAKNTVYLQMNSLKPDDTAVYYCAAAGLGTVVSEWDYDYDYWGQGTQVTVSS
[5]
  fold increased RBD binding: 4 fold
[3]
  EC50: 0.51 µg/mL

B9: VHH-72 (S57A, Y60T) (VHH)
VHH: QVQLQESGGGLVQAGGSLRLSCAASGRTFSEYAMGWFRQAPGKEREFVATISWSGGATYTTDSVKGRFTISRDNAKNTVYLQMNSLKPDDTAVYYCAAAGLGTVVSEWDYDYDYWGQGTQVTVSS
[3]
  EC50: 0.024 µg/mL
[4]
  fold further-increased apparent RBD affinity: ~3.5 fold
